Source: patent US20260209386A1 (MYTHIC THERAPEUTICS, published 2026)

T1: Human PTK7/CCK4 Protein, His Tag, Acro Biosystems PT7-H52H3 (human, UniProt Q13308 31-704)
T1 construct: bought protein; also called Human PTK7 Protein, His Tag, Acro Biosystems; not shown: His tag
T1 sequence: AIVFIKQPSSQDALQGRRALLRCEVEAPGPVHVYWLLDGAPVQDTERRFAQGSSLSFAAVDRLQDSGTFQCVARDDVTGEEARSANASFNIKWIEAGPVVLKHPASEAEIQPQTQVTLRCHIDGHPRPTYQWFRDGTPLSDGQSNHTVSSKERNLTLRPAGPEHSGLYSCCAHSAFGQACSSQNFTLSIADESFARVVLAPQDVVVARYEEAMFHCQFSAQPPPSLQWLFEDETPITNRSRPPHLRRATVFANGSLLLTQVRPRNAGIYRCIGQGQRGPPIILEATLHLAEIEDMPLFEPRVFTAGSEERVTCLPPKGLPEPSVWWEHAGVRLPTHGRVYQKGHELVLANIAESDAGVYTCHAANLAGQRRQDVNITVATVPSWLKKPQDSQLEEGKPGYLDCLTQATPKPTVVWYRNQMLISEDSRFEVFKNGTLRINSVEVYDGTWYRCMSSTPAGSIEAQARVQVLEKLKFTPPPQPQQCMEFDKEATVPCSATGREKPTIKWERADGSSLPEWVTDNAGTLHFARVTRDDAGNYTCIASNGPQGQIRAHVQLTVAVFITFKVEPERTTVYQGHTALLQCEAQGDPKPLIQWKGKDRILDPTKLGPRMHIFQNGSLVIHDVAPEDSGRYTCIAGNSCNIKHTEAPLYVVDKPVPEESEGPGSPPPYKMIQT


Target: T1, Human PTK7/CCK4 Protein, His Tag, Acro …
Assay: BLI, antibody on anti-human Fc sensor, 50 nM PTK7

| binding result | Binder |
| --- | --- |
| binds | MYT11134 (antibody, V domains shown, IgG) VH: EVQLVESGGGLVQPGGSLRLSCTASGFSLSTYAMSWVRQAPGKGLEWVGMIYINDNTYYASWAKGRFTISRDTSKNTVYLQMNSLRAEDTAVYFCARDIGIHYYIGVSLWGQGTLVTVSS VL: EIVMTQSPSTLSASVGDRVIITCQASQSIGTRLSWYQQKPGKAPKLLIYGASKLATGVPSRFSGSGSGAEFTLTISSLQPDDFATYYCLGEYSYTTTDGIAFGQGTKLTVL |
| binds | MYT11137 (antibody, V domains shown, IgG) VH: EVQLVESGGGLVQPGGSLRLSCTASGFSLSTYAMSWVRQAPGKGLEWVGMIYINDNTYYASWAKGRFTISRDTSKNTVYLQMNSLRAEDTAVYFCARDIGISYYHGVSLWGQGTLVTVSS VL: EIVMTQSPSTLSASVGDRVIITCQASQSIGTRLSWYQQKPGKAPKLLIYGASKLATGVPSRFSGSGSGAEFTLTISSLQPDDFATYYCLGEYSYTTTDGIAFGQGTKLTVL |
| binds | MYT11150 (antibody, V domains shown, IgG) VH: EVQLVESGGGLVQPGGSLRLSCTASGFSLSTYAMSWVRQAPGKGLEWVGMIYINDNTYYASWAKGRFTISRDTSKNTVYLQMNSLRAEDTAVYFCARDIGISYYIGVSLWGQGTLVTVSS VL: EIVMTQSPSTLSASVGDRVIITCQASQSHGTRLSWYQQKPGKAPKLLIYGASKLATGVPSRFSGSGSGAEFTLTISSLQPDDFATYYCLGEYSYTTTDGIAFGQGTKLTVL |
| binds | MYT11136 (antibody, V domains shown, IgG) VH: EVQLVESGGGLVQPGGSLRLSCTASGFSLSTYAMSWVRQAPGKGLEWVGMIYINDNTYYASWAKGRFTISRDTSKNTVYLQMNSLRAEDTAVYFCARDIGISYHIGVSLWGQGTLVTVSS VL: EIVMTQSPSTLSASVGDRVIITCQASQSIGTRLSWYQQKPGKAPKLLIYGASKLATGVPSRFSGSGSGAEFTLTISSLQPDDFATYYCLGEYSYTTTDGIAFGQGTKLTVL |
| binds | MYT11152 (antibody, V domains shown, IgG) VH: EVQLVESGGGLVQPGGSLRLSCTASGFSLSTYAMSWVRQAPGKGLEWVGMIYINDNTYYASWAKGRFTISRDTSKNTVYLQMNSLRAEDTAVYFCARDIGISYYIGVSLWGQGTLVTVSS VL: EIVMTQSPSTLSASVGDRVIITCQASQSIGHRLSWYQQKPGKAPKLLIYGASKLATGVPSRFSGSGSGAEFTLTISSLQPDDFATYYCLGEYSYTTTDGIAFGQGTKLTVL |
| binds | MYT11163 (antibody, V domains shown, IgG) VH: EVQLVESGGGLVQPGGSLRLSCTASGFSLSTYAMSWVRQAPGKGLEWVGMIYINDNTYYASWAKGRFTISRDTSKNTVYLQMNSLRAEDTAVYFCARDIGISYYIGVSLWGQGTLVTVSS VL: EIVMTQSPSTLSASVGDRVIITCQASQSIGTRLSWYQQKPGKAPKLLIYGASKLATGVPSRFSGSGSGAEFTLTISSLQPDDFATYYCHGEYSYTTTDGIAFGQGTKLTVL |
| binds | MYT11107 (antibody, V domains shown, IgG) VH: EVQLVESGGGLVQPGGSLRLSCTASGFSLSHYAMSWVRQAPGKGLEWVGMIYINDNTYYASWAKGRFTISRDTSKNTVYLQMNSLRAEDTAVYFCARDIGISYYIGVSLWGQGTLVTVSS VL: EIVMTQSPSTLSASVGDRVIITCQASQSIGTRLSWYQQKPGKAPKLLIYGASKLATGVPSRFSGSGSGAEFTLTISSLQPDDFATYYCLGEYSYTTTDGIAFGQGTKLTVL |
| binds | MYT11117 (antibody, V domains shown, IgG) VH: EVQLVESGGGLVQPGGSLRLSCTASGFSLSTYAMSWVRQAPGKGLEWVGMIYINHNTYYASWAKGRFTISRDTSKNTVYLQMNSLRAEDTAVYFCARDIGISYYIGVSLWGQGTLVTVSS VL: EIVMTQSPSTLSASVGDRVIITCQASQSIGTRLSWYQQKPGKAPKLLIYGASKLATGVPSRFSGSGSGAEFTLTISSLQPDDFATYYCLGEYSYTTTDGIAFGQGTKLTVL |

Second part, the binder before the results:

| Binder | binding result |
| --- | --- |
| MYT11106 (antibody, V domains shown, IgG) VH: EVQLVESGGGLVQPGGSLRLSCTASGFSLHTYAMSWVRQAPGKGLEWVGMIYINDNTYYASWAKGRFTISRDTSKNTVYLQMNSLRAEDTAVYFCARDIGISYYIGVSLWGQGTLVTVSS VL: EIVMTQSPSTLSASVGDRVIITCQASQSIGTRLSWYQQKPGKAPKLLIYGASKLATGVPSRFSGSGSGAEFTLTISSLQPDDFATYYCLGEYSYTTTDGIAFGQGTKLTVL | binds |
| MYT11146 (antibody, V domains shown, IgG) VH: EVQLVESGGGLVQPGGSLRLSCTASGFSLSTYAMSWVRQAPGKGLEWVGMIYINDNTYYASWAKGRFTISRDTSKNTVYLQMNSLRAEDTAVYFCARDIGISYYIGVSLWGQGTLVTVSS VL: EIVMTQSPSTLSASVGDRVIITCQHSQSIGTRLSWYQQKPGKAPKLLIYGASKLATGVPSRFSGSGSGAEFTLTISSLQPDDFATYYCLGEYSYTTTDGIAFGQGTKLTVL | binds |
| MYT11120 (antibody, V domains shown, IgG) VH: EVQLVESGGGLVQPGGSLRLSCTASGFSLSTYAMSWVRQAPGKGLEWVGMIYINDNTHYASWAKGRFTISRDTSKNTVYLQMNSLRAEDTAVYFCARDIGISYYIGVSLWGQGTLVTVSS VL: EIVMTQSPSTLSASVGDRVIITCQASQSIGTRLSWYQQKPGKAPKLLIYGASKLATGVPSRFSGSGSGAEFTLTISSLQPDDFATYYCLGEYSYTTTDGIAFGQGTKLTVL | binds |
| MYT11115 (antibody, V domains shown, IgG) VH: EVQLVESGGGLVQPGGSLRLSCTASGFSLSTYAMSWVRQAPGKGLEWVGMIYHNDNTYYASWAKGRFTISRDTSKNTVYLQMNSLRAEDTAVYFCARDIGISYYIGVSLWGQGTLVTVSS VL: EIVMTQSPSTLSASVGDRVIITCQASQSIGTRLSWYQQKPGKAPKLLIYGASKLATGVPSRFSGSGSGAEFTLTISSLQPDDFATYYCLGEYSYTTTDGIAFGQGTKLTVL | binds |
| MYT11151 (antibody, V domains shown, IgG) VH: EVQLVESGGGLVQPGGSLRLSCTASGFSLSTYAMSWVRQAPGKGLEWVGMIYINDNTYYASWAKGRFTISRDTSKNTVYLQMNSLRAEDTAVYFCARDIGISYYIGVSLWGQGTLVTVSS VL: EIVMTQSPSTLSASVGDRVIITCQASQSIHTRLSWYQQKPGKAPKLLIYGASKLATGVPSRFSGSGSGAEFTLTISSLQPDDFATYYCLGEYSYTTTDGIAFGQGTKLTVL | binds |
| MYT11108 (antibody, V domains shown, IgG) VH: EVQLVESGGGLVQPGGSLRLSCTASGFSLSTHAMSWVRQAPGKGLEWVGMIYINDNTYYASWAKGRFTISRDTSKNTVYLQMNSLRAEDTAVYFCARDIGISYYIGVSLWGQGTLVTVSS VL: EIVMTQSPSTLSASVGDRVIITCQASQSIGTRLSWYQQKPGKAPKLLIYGASKLATGVPSRFSGSGSGAEFTLTISSLQPDDFATYYCLGEYSYTTTDGIAFGQGTKLTVL | binds |
| MYT11153 (antibody, V domains shown, IgG) VH: EVQLVESGGGLVQPGGSLRLSCTASGFSLSTYAMSWVRQAPGKGLEWVGMIYINDNTYYASWAKGRFTISRDTSKNTVYLQMNSLRAEDTAVYFCARDIGISYYIGVSLWGQGTLVTVSS VL: EIVMTQSPSTLSASVGDRVIITCQASQSIGTHLSWYQQKPGKAPKLLIYGASKLATGVPSRFSGSGSGAEFTLTISSLQPDDFATYYCLGEYSYTTTDGIAFGQGTKLTVL | binds |
